Assay results as given in EP4806514A2 (Lepu Biopharma Co., Ltd., dated 2025).

Columns and labels:
Assay in all cases: ELISA, antigen coated at 1 ug/mL
[1] = target: T1, rat CDH17-his (Sino bio, Cat. No. 80283-R08H) (rat, UniProt P55281 22-786)
T1 construct: Bought; also called rat CDH17 protein
T1 sequence (looked up): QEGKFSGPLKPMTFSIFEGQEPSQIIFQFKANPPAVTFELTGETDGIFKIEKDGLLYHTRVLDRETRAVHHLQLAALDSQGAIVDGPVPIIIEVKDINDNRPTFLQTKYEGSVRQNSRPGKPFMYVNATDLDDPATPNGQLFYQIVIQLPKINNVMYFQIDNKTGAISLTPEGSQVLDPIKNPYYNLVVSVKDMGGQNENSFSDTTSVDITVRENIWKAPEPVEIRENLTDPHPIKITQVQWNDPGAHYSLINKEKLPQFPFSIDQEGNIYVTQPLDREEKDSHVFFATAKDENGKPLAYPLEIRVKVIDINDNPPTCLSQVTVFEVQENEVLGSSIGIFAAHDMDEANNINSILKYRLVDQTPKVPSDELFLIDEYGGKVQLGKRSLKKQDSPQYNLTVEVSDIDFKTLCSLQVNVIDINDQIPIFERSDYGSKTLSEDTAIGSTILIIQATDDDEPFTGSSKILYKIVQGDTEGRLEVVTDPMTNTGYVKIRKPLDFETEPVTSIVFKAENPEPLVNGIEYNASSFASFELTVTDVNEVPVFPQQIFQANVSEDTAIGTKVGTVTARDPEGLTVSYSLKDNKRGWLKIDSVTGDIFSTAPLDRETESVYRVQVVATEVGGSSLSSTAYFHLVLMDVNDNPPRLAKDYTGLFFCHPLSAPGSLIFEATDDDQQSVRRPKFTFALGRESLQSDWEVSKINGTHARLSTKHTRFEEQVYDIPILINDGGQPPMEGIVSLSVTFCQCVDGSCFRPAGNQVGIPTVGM

[2] = target: T2, human CDH6-his protein (Katcus, Cat. No. CDH-HM106) (human, UniProt P55285 54-615, limits assumed)
T2 construct: Bought; also called human CDH6 protein
T2 sequence (looked up): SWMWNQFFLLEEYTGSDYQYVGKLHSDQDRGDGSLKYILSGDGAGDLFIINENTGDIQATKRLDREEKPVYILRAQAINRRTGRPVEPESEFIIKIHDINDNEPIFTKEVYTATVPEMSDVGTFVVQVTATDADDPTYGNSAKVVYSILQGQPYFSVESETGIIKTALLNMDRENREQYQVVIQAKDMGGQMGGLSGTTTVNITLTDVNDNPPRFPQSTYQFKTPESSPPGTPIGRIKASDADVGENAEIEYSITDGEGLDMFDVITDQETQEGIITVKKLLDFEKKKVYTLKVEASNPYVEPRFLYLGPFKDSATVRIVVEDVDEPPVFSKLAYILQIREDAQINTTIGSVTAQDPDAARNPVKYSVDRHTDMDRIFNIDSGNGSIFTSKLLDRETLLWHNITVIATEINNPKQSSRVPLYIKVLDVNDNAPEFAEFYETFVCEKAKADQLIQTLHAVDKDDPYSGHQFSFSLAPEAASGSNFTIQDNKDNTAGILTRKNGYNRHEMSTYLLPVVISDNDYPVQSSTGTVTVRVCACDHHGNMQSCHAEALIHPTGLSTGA

[3] = target: T3, human CDH16 protein (hCDH16-his, Novoprotein, Cat. No. CJ16) (human, UniProt O75309 19-786)
T3 construct: Bought; also called human CDH16-his
T3 sequence (looked up): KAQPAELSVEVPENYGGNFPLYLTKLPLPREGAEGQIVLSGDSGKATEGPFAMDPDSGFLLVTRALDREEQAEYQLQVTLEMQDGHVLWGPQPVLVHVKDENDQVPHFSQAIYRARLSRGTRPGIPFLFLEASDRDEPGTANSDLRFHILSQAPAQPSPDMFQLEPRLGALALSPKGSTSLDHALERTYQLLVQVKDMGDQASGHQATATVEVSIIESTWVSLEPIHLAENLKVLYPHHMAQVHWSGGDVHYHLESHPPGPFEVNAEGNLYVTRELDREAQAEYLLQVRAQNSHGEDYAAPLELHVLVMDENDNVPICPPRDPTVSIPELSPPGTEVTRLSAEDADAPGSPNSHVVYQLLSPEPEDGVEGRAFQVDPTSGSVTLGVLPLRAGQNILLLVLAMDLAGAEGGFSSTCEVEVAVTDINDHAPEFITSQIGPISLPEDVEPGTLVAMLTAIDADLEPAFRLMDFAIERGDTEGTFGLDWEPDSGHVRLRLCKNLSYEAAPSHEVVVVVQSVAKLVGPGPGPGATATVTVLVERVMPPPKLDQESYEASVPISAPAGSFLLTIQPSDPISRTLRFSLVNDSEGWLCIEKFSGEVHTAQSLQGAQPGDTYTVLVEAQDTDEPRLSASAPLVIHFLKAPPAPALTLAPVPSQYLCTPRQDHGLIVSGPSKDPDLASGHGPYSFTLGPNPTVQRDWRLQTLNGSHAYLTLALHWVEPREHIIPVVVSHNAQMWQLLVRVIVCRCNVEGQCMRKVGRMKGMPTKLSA

[4] = target: T4, human CDH9-his (Acro bio, Cat. No. CA9-H52H6) (human, UniProt Q9ULB4 54-615)
T4 construct: Bought; also called human CDH9 protein
T4 sequence (looked up): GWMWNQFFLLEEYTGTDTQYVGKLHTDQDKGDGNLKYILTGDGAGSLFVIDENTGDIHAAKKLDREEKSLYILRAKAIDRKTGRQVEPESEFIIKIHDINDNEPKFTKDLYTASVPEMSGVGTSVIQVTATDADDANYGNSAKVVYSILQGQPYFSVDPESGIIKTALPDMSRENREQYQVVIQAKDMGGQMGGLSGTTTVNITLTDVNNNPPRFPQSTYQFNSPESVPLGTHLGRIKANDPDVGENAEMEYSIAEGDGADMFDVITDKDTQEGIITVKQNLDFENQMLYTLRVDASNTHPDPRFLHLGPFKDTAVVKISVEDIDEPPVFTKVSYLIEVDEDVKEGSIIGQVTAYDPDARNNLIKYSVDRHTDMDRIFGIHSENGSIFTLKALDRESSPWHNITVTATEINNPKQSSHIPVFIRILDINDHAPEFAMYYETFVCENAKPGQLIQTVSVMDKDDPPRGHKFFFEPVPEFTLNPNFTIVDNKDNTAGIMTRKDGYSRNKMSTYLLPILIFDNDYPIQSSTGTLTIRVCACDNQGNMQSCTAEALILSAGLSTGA

[5] = target: T5, human CDH3-his protein (Kactus, Cat. No. CDH-HM103) (human, UniProt P22223 108-654, limits assumed)
T5 construct: Bought; also called human CDH3 protein
T5 sequence (P22223 108-654 limits assumed): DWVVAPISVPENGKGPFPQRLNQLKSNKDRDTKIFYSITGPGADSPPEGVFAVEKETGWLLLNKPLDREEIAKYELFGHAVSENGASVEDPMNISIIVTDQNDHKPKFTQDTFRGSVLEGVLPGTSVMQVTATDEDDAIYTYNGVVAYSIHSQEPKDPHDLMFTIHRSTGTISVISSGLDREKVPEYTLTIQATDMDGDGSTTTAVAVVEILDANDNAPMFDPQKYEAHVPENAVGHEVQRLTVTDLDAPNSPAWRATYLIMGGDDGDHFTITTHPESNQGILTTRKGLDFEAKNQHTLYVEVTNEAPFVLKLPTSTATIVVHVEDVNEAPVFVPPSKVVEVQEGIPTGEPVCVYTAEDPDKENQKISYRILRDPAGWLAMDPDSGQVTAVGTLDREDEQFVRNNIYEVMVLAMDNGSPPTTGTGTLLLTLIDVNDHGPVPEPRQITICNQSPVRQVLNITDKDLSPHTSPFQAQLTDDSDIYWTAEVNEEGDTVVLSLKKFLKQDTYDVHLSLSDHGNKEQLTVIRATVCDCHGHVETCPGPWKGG

binding result [1]: no binding (tested: titrated from 50 nM)
binding result [2]: no binding (tested: titrated from 50 nM)
binding result [3]: no binding (tested: titrated from 50 nM)
binding result [4]: no binding (tested: titrated from 50 nM)
binding result [5]: no binding (tested: titrated from 50 nM)
B1: 29H8D3-z12 (antibody, V domains shown)
VH: QVQLVQSGAEVKKPGASVKVSCKASGYTFTDHTIHWMRQRPGQGLEWIGYIYPRDGYTKYNEKFKDRATLTADTSTSTAYMELRSLRSDDTAVYYCARFYYGYWYFDVWGQGTTVTVSS
VL: DIVMTQSPLSLPVTPGEPASISCRSSKSLLRSNGNTYLYWFLQKPGQSPQVLIYRMSNLASGVPDRFSGSGSGTDFTLKISRVEAEDVGVYYCMQHLEYPFTFGQGTKLEIK
notes: Humanized, human IgG1 constant region; also called 29H8D3-z12 mAb
